According to US20240301071A1 (Alector, published 2024):

T1: CynoSIRPA (NP_001271679.1) (cynomolgus, UniProt A0A2K5VYQ9 31-507)
T1 sequence: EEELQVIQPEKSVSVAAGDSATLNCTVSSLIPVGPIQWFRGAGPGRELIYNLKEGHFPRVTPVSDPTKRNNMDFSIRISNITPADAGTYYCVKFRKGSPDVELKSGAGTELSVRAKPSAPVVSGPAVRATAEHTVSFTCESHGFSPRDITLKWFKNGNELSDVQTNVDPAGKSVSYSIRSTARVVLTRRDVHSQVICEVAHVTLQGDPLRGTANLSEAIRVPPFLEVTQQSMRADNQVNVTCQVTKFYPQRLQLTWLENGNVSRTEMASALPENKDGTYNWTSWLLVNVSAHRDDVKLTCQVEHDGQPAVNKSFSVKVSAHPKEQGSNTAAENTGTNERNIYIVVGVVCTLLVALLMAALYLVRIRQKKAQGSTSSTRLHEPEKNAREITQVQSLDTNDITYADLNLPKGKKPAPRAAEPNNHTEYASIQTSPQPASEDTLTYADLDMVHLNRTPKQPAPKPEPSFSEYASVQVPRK

T2: cynoSIRPA XPO15313153.1 (cynomolgus, UniProt A0A2K5VYQ9)
T2 construct: not tied one by one in the text; also called cynomolgus SIRPA; not shown: Fc or His tag
T2 sequence: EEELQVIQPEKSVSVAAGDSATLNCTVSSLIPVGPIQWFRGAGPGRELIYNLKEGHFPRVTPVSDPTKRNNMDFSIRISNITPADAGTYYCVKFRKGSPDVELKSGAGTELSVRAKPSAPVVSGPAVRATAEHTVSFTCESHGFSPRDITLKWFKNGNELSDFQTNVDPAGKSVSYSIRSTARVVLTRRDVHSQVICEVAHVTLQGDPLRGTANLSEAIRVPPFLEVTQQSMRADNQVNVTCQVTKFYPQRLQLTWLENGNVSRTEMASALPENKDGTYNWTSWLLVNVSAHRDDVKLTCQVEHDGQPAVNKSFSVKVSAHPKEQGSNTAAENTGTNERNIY

T3: rat SIRPA (rat, UniProt P97710 32-373, limits assumed)
T3 sequence (looked up): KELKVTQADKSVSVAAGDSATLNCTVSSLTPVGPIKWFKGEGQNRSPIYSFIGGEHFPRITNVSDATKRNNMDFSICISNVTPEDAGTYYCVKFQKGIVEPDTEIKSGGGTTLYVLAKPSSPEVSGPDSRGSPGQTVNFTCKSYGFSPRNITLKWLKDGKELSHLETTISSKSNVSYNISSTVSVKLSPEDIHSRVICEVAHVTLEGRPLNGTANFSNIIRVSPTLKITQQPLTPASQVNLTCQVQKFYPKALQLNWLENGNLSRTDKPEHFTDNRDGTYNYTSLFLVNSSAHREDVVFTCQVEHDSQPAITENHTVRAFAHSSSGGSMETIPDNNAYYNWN


Experiments:
[1] = molecular target: T1, CynoSIRPA (NP_001271679.1); assay: ELISA, plate coated with SIRP protein
Protocol: (§1) In an ELISA assay, 96-well Immulon HBX plates were coated with His- or Fc-tagged SIRPA of a given species, as indicated, at 1 μg/mL in PBS overnight at 4C. Plates were blocked in 5% (w/v) bovine serum albumin in PBS for 1 hour, after which they were washed 3 times with PBS/0.05% Tween 20 (PBS/T). Anti-SIRPA antibodies were added to the plate in a dilution series and were incubated at room temperature for 2 hours, after which the unbound antibody was removed by washing with PBS/T. Horseradish peroxidase-conjugated anti-mouse IgG or anti-human kappa light chain (Jackson Immunoresearch) was then added to the wells and incubated for 30 minutes. Unbound antibody was removed by washing with PBS/T, after which bound antibody was detected using tetramethylbenzidine (TMB). The reaction was stopped with 2N H₂SO₄, after which the plates were read at A450.

[2] = molecular target: T4, human SIRPA v1 on BWZ cells (BWZ-huSIRPA) (human, UniProt P78324 31-504); assay: flow cytometry competition on BWZ-huSIRPA v1 cells, competitor: fluorophore-labelled reference m3F9
T4 construct: also called BWZ cells overexpressing human SIRPA; BWZ-huSIRPA v1 cells
Text: IC50 values provide another comparison of relative affinity.

[3] = molecular target: T4, human SIRPA v1 on BWZ cells …; assay: flow cytometry titration on BWZ cells overexpressing huSIRPA, 4 C
Protocol: Receptor bound antibodies were detected by staining cells with anti-mouse IgG Fc APC or anti-human IgG PE secondary antibody. Serial dilutions of the monoclonal antibodies were added to 10⁵ BWZ cells overexpressing huSIRPA (BWZ-huSIRPA) and allowed to achieve binding equilibrium at 4° C. After addition of fluorescently labeled secondary antibody and brief washing steps, mean fluorescent intensity (MFI) values as a function of titrated antibody concentration was recorded via FACS analysis. Curves were fit using nonlinear regression analysis with Graphpad Prism 6 software.

[4] = molecular target: T5, histidine-tagged human SIRPA (Sino Biological) (human, UniProt P78324 31-370); assay: BLI (Octet RED96), antibody captured on anti-human IgG Fc sensor, His-tagged SIRPA in solution, 1:1 model
T5 construct: bought, soluble; also called histidine-tagged huSIRPA isoform 1; soluble SIRPA antigen; not shown: histidine tag
Protocol: (§2) Affinity measurements for the anti-SIRPA antibodies were performed as follows. Bio-layer interferometry (BLI) data were collected on a Pall ForteBio Octet RED96 instrument. Data analysis was performed using ForteBio Data Analysis Software, version 9.0. Standard kinetic buffer (PBS, 0.100 BSA, 0.02% Tween-20, pH 7.2) was used for the assay and for preparing reagents. […] Varying concentrations (0-200 nM) of histidine-tagged human SIRPA (Sino Biological, Beijing, China) were then bound to the captured anti-SIRPA surface (300 s association time, 600 s dissociation time). The resulting BLI signal was obtained as the difference in response from the reference (2.5 μg/mL IgG+0 nM SIRPA) sensor. […] Multi-concentration kinetic analysis was performed using a 1:1 interaction model to extract association and dissociation rate constants (ka and kd, respectively) for each antibody. Binding affinity constants (KD) were calculated from the ratio kd/ka.
(§3) Best-fit traces from the resulting sensorgrams were analyzed to calculate association rate, dissociation rate, and affinity values.

cynoSIRPA XPO15313153.1 = molecular target: T2, cynoSIRPA XPO15313153.1; assay: ELISA, plate coated with tagged SIRPA at 1 ug/mL
Protocol: as §1

rat SIRPA = molecular target: T3, rat SIRPA; assay: ELISA, plate coated with tagged SIRPA at 1 ug/mL
Protocol: as §1

huSIRPA v.2 NP542970.1 = molecular target: T6, huSIRPA v.2 NP542970.1 (human, UniProt P78324 31-373, limits assumed); assay: ELISA, plate coated with tagged SIRPA at 1 ug/mL
T6 construct: see m48; also called human SIRPA v2; human SIRPA-Fc (v2)
Protocol: as §1

[5] = molecular target: T4, human SIRPA v1 on BWZ cells …; assay: flow cytometry titration on BWZ-huSIRPA cells, 4 C
Protocol: After addition of fluorescently labeled secondary antibody and brief washing steps, MFI values as a function of titrated antibody concentration was recorded via FACS analysis. […] Receptor bound antibodies were detected by staining cells with anti-human IgG PE secondary antibody. Curves were fit using nonlinear regression analysis with Graphpad Prism 6 software.

[6] = molecular target: T5, histidine-tagged human SIRPA (Sino …); assay: BLI (Octet RED96), antibody captured on anti-mouse IgG Fc sensor, His-tagged SIRPA in solution, 1:1 model
Protocol: as §2, §3

T4 sequence (P78324 31-504): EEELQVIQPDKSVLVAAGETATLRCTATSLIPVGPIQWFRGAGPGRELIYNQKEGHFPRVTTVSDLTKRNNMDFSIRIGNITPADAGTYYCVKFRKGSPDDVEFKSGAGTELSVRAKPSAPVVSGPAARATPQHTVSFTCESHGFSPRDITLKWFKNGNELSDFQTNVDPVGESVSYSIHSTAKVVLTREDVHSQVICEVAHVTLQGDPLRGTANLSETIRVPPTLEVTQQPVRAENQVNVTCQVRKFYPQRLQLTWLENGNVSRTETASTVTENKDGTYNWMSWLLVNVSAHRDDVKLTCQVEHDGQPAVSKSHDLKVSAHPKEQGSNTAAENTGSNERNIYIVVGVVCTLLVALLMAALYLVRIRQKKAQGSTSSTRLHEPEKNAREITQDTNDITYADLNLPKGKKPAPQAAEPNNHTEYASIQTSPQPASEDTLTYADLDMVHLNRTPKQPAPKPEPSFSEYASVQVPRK
T5 sequence (P78324 31-370 limits assumed): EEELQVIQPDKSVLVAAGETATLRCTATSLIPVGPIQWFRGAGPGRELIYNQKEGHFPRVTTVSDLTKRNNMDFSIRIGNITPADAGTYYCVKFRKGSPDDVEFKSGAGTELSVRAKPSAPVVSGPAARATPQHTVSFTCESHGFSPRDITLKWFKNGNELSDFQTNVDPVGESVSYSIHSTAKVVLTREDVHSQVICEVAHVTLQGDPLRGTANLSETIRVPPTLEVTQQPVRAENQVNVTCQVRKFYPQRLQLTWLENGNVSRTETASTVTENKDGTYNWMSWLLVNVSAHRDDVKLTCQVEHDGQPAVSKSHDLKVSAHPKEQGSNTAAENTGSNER
T6 sequence (P78324 31-373 limits assumed): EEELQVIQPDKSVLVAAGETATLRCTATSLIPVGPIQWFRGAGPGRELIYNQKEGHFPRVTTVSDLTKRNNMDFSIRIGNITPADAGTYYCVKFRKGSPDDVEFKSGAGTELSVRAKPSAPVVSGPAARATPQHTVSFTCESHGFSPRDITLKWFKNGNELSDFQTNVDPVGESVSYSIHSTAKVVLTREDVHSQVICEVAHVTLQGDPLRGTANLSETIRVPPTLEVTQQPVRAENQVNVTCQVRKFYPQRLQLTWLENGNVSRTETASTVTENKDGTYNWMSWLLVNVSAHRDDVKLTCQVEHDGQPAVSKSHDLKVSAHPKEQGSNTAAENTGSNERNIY

Row | Binder | EC50 [1] [nM] | IC50 [2] [nM] | EC50 [3] [nM] | Kd [4] [nM] | koff [4] [s⁻¹] | kon [4] [M⁻¹ s⁻¹] | EC50 (cynoSIRPA XPO15313153.1) [nM] | binding result (rat SIRPA) | EC50 (huSIRPA v.2 NP542970.1) [nM] | EC50 [5] [nM] | Kd [6] [nM] | koff [6] [s⁻¹] | kon [6] [M⁻¹ s⁻¹]
1 | anti-SIRPA antibody 9C2 (antibody, V domains shown, described in PCT/US2017/65366; also called mAb 9C2) VH: EFQLQQSGAELVKPGASVKISCKASGYSLTGYNMNWVKQSRGKSLEWIGNINPHYGSSTYNQNFKDKATLTVDKSSSAAYMQFNSLTSEDSAVYYCAREGYDGVFDYWGQGTTLTVSS VL: QIVLSQSPAILSASPGEKVTMTCRASSSVSYMHWYQQKPGSSPKPWIYVTSNLASGVPTRFSGSGSGTSYSLTISRVEAEDAATYYCQQWSSNPRTFGGGTKLEIK | 7.44 | – | – | – | – | – | – | – | – | – | – | – | –
2 | mAb 14.70.2 (antibody, human IgG4, V domains shown, also called h3F9 H1/L2; h3F9 IgG4) VH: EVQLLESGGGLVQPGGSLRLSCAASGFTFSSYAMSWVRQAPGKGLEWVSTISDYGGSYTYYADSVKGRFTISRDNSKNTLYLQMNSLRAEDTAVYYCAKPPYDDYYGGFAYWGQGTLVTVSS VL: DIQLTQSPSSLSASVGDRVTITCRASKSVSSSGYSYMHWYQQKPGKAPKLLIYLASNLESGVPSRFSGSGSGTDFTLTISSVQPEDFATYYCQHNRELPCTFGQGTKLEIK | – | 2.19 | 0.968 | 20 | 0.0022 | 110000 | – | – | – | – | – | – | –

Now from value to binder:

Row | EC50 [1] [nM] | IC50 [2] [nM] | EC50 [3] [nM] | Kd [4] [nM] | koff [4] [s⁻¹] | kon [4] [M⁻¹ s⁻¹] | EC50 (cynoSIRPA XPO15313153.1) [nM] | binding result (rat SIRPA) | EC50 (huSIRPA v.2 NP542970.1) [nM] | EC50 [5] [nM] | Kd [6] [nM] | koff [6] [s⁻¹] | kon [6] [M⁻¹ s⁻¹] | Binder
3 | – | 4.61 | 1.61 | 11 | 0.00094 | 86000 | – | – | – | – | – | – | – | mAb 14.70.4 (antibody, human IgG4, V domains shown, also called h3F9 H2/L1; h3F9 IgG4) VH: EVQLLESGGGLVQPGGSLRLSCAASGFTFSSYAMSWVRQAPGKGLEWVATISDYGGSYTYYADSVKGRFTISRDNSKNTLYLQMNSLRAEDTAVYYCARPPYDDYYGGFAYWGQGTLVTVSS VL: DIQMTQSPSSLSASVGDRVTITCRASKSVSSSGYSYMHWYQQKPGKAPKLLIYLASNLESGVPSRFSGSGSGTDFTLTISSLQPEDFATYYCQHNRELPCTFGQGTKLEIK
4 | 0.658 | 11.5 | 2.1 | – | – | – | 1.09 | no binding | 0.695 | 0.72 | 18 | 0.001 | 50800 | mouse anti-SIRPA antibody m3F9 (antibody, mouse IgG1, V domains shown, hybridoma-derived murine IgG1; also called Parental m3F9 IgG1; 3F9 mIgG1) VH: EVKLVESGGGLVKPGGSLKLSCAASGFTFSSYAMSWVRQTPEKRLEWVATISDYGGSYTYYPDSVKGRFTISRDNAKYTLYLQMSSLRSEDTALYYCARPPYDDYYGGFAYWGQGTLVTVSA VL: DIVLTQSPASLAVSLGQRATISCRASKSVSSSGYSYMHWYQQKPGQPPKLLIYLASNLESGVPARFSGSGSGTDFTLNIHPVEEEDAATYYCQHNRELPCTFGGGTKLEIK
